How the values were obtained:
[1] = target: T1, 刺突S蛋白-鼠Fc融合蛋白 (S-mFc) (SARS-CoV-2; mouse, UniProt P0DTC2 14-1213); assay: FACS, blocking of S-mFc binding to 293T-ACE2 cells
T1 construct: domain: S蛋白全长区段

[2] = target: T2, SARS-CoV-2 S1蛋白 (ACRO Biosystems) (SARS-CoV-2, UniProt P0DTC2 16-685); assay: competition ELISA, S1 coated, HRP-hACE2-Fc as competitor
T2 construct: domain: S1

B1: 人源化抗体hS1B-30-3 (humanized antibody hS1B-30-3) (antibody, V domains shown)
VH: EVQLVESGGGLVQPGGSLRLSCAASGFTFSDAWMDWVRQAPGKGLDWVAQIRNKANSHATNYADSVKGRFTISRDDSKNSVYLQMNSLKTEDTAVYYCIRGLTGYVLDYWGQGTTVTVSS
VL: DIQMTQSPSSLSASVGDRVTITCKASQNVRTAVAWYQQKPGQSPKALIFLASNRHTGVPDRFSGSGSGTDFTLTISSLQPEDFATYFCLQHWNYPLTFGGGTKVEIKR
IC50 [1]: 0.00691 mg/L
EC50 [2]: 0.0331 mg/L

— patent publication CN114106163A (ANYUAN MEDICINE SCIENCE AND TECH SHANGHAI LIMITED COMPANY, dated 2022)
